From patent publication US20170335314

System: biotinylated anti-BRD7 Fab fragment (murine IgG1 isotype; bFab) (Mus musculus)
Assay: pulldown
Settings: streptavidin bead capture with QPCR readout; PBSM (PBS with 1 mM MgCl2), overnight

## GCAAAGACATCTGGACACGCCACTAAGTGGAGGTGATCTGTACTTCATTTATGAGATCGCGGCGAGGAGAAGGAGACTTAGAGGC [aptamer 228 (10AptR1)]
  Kd: 11 nM
